From patent US20130330346A1 (Novartis, published 2013)
Residue numbers refer to the chain shown, from its start. Where two headings read alike, the source gives them in different places. Ends that are not written are not given here.

Tests used:
[1] = biological target: T1, Human CXCR2 (human, UniProt P25025 1-360); test: cell-based or functional assay
T1 sequence: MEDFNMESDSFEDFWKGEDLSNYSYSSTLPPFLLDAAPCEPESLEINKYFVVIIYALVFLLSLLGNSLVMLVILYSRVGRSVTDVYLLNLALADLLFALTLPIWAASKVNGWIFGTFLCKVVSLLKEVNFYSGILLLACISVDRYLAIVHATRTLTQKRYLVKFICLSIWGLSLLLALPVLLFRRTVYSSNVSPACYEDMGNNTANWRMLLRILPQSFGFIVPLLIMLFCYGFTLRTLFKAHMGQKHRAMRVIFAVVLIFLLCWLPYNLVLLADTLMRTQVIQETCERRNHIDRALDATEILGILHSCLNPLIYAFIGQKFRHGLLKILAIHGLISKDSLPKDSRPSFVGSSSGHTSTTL

[2] = biological target: T2, Cynomolgus CXCR2 (cynomolgus, UniProt Q28519 3-353 (rhesus entry)); test: cell-based or functional assay
T2 chain: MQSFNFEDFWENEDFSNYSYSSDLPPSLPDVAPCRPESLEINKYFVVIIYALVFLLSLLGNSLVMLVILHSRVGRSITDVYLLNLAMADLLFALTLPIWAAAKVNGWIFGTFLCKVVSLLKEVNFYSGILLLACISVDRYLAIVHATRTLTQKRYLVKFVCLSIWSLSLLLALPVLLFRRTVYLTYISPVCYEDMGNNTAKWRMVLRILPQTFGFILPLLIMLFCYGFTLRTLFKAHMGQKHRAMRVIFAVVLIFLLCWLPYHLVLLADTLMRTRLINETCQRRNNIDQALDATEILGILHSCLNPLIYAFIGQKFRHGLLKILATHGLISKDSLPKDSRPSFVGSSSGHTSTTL

[3] = biological target: T1, Human CXCR2; test: FACS hGro-α competition
[4] = biological target: T2, Cynomolgus CXCR2; test: FACS hGro-α competition
[5] = biological target: T1, Human CXCR2; test: immunoluminescence, HEK-293T with wild type receptor, 1.0 ug/ml, anti-myc detection
[6] = biological target: T3, Human 1to19 peptide (human); test: peptide ELISA of Table 8 (ratio 0.6)
T3 construct: First 19 N-terminal amino acids of human CXCR2, captured on neutravidin; also called human CXCR2 1 to19 peptide; 1-19 Nter peptide
T3 peptide: MEDFNMESDSFEDFWKGED-biotin

[7] = biological target: T1, Human CXCR2; test: FACS hGro-α competition; remark: listed apart in the source
[8] = biological target: T2, Cynomolgus CXCR2; test: FACS hGro-α competition
[9] = biological target: T1, Human CXCR2; test: FACS competition vs 3 nM FMAT-Blue Gro-α
Method: (§1) Purified monovalent anti-CXCR2Nanobodies were titrated against 3 nM FMAT-Blue-labeled Gro-α in the FACS ligand competition assay on human and cynomolgus CXCR2 (Table 10). On human CXCR2, blocking potencies range between double digit nM and sub-nM whereas on cynomolgus CXCR2, they range between single and double digit nM.

[10] = biological target: T2, Cynomolgus CXCR2; test: FACS competition vs 3 nM FMAT-Blue Gro-α
Method: as §1

[11] = biological target: T1, Human CXCR2; test: FACS, periplasmic extract vs FMAT Blue Gro-α
How it was run: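 Cells (2×10⁵) preincubated 30 min at 4 °C with ½-diluted periplasmic extracts in PBS/10% FBS. An equal volume of 6 nM FMAT Blue-labelled human Gro-α was then added for another 30 min at 4 °C in the dark. After washing, dead cells were excluded with propidium iodide and binding read by flow cytometry.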

[12] = biological target: T1, Human CXCR2; test: cell-based or functional assay; remark: listed apart in the source
[13] = biological target: T2, Cynomolgus CXCR2; test: cell-based or functional assay
[14] = biological target: T1, Human CXCR2; test: cell-based or functional assay; remark: listed apart in the source
[15] = biological target: T2, Cynomolgus CXCR2; test: cell-based or functional assay
[16] = biological target: T1, Human CXCR2; test: cell-based or functional assay; remark: listed apart in the source
[17] = biological target: T2, Cynomolgus CXCR2; test: cell-based or functional assay
[18] = biological target: T3, Human 1to19 peptide; test: ELISA, periplasmic extract on biotinylated peptide
Method: In another setup, periplasmic extracts were analyzed for binding to human 1 to 19 peptide by ELISA. MaxiSorb plates (Nunc, 430341) were coated for two hours with neutravidin followed by one hour blocking (PBS, 1% casein). Then 100 nM biotinylated human 1 to 19 peptide was added to these plates for one hour (PBS, 0.1% casein, 0.05% tween20) followed by one hour incubation with 10-fold dilutions of periplasmic extracts. Unbound periplasmic extracts were washed away (PBS supplemented with 0.05% tween20) and bound Nanobodies were detected using mouse anti-myc (Roche, 11667149001) followed by rabbit anti-mouse-HRP conjugate (Dakocytomation, P0260). Table 8 summarizes the ratios of the binding signals of anti-CXCR2Nanobodies over an irrelevant control Nanobody.

[19] = biological target: T1, Human CXCR2; test: cell-based or functional assay; remark: listed apart in the source
[20] = biological target: T1, Human CXCR2; test: immunoluminescence, HEK-293T with wild type receptor, 2.0 ug/ml, anti-myc detection
[21] = biological target: T1, Human CXCR2; test: cell-based or functional assay; remark: listed apart in the source
[22] = biological target: T2, Cynomolgus CXCR2; test: cell-based or functional assay
[23] = biological target: T2, Cynomolgus CXCR2; test: FACS hGro-α competition
[24] = biological target: T1, Human CXCR2; test: FACS hGro-α competition; remark: listed apart in the source
[25] = biological target: T2, Cynomolgus CXCR2; test: FACS hGro-α competition
[26] = biological target: T1, Human CXCR2; test: cell-based or functional assay; remark: listed apart in the source
[27] = biological target: T2, Cynomolgus CXCR2; test: cell-based or functional assay

B1: CXCR20061 (VHH)
VHH: EVQLLESGGGLVQPGGSLRLSCAASGSIVRINTMGWYRQAPGKQRELVADITSGGNINYADSVKGRFTISRDNSKNTVYLQMNSLRPEDTAVYYCNAEIVVLVGVWTQRARTGNYWGQGTLVTVSS
notes: also called RD-HBC793; RDHBC 793
With B1 the “FLIPR hGro-α IC50” value [1] was 66 nM, the “FLIPR hGro-α IC50” value [2] was 350 nM and the IC50 [3] was 15 nM. For the same binder, the IC50 [4] was 62 nM and the “Signal:Background” value [5] was 6.9 ratio.

B2: 163E3 (VHH)
VHH: EVQLVESGGGLVQPGGSLRLSCVASGRIFSSNAMGWFRQAPGKEREFVAAITWRSGGSAYYADSAKGRFTISRDNAKNTVYLQMNSLKPEDTAVYYCAAGGSSWLSFPPDYWGQGTQVTVSS
notes: Tested as periplasmic extract (pAX50) and as purified His6-tagged protein (pAX100); also called 163E03; not shown: C-terminal c-myc tag and His6 tag coded by the vector
For B2, the binding result [6] was “no binding”, the IC50 [7] was 10 nM and the IC50 [8] was 22 nM. For the same binder, the “% inhibition of max” value [9] was 92.4%, the IC50 [9] was 8.96 nM and the “% inhibition of max” value [10] was 83.5%. For the same binder, the IC50 [10] was 14.8 nM, the “FACS Gro-α competition (% inhibition)” value [11] was 80.1% and the “FLIPR % inhibition max” value [12] was 100%. For the same binder, the “FLIPR IC50 (GRO-α induced calcium release)” value [12] was 44.3 nM, the “[35S]GTPγS % inhibition max (GRO-α)” value [12] was 100% and the “[35S]GTPγS IC50 (GRO-α)” value [12] was 64.7 nM. The “FLIPR % inhibition max” value [13] was 100%, the “FLIPR IC50 (GRO-α induced calcium release)” value [13] was 158 nM and the “Human Chemotaxis IC50 (GROα)” value [14] was 9.3 nM. For the same binder, the “Human WBSC IC50 (rhGROα)” value [14] was 9.4 nM, the “Cynomologus WBSC IC50 (rhGROα)” value [15] was greater than 100 nM and the “FLIPR hGro-α IC50” value [16] was 35 nM. For the same binder, the “FLIPR hGro-α IC50” value [17] was 150 nM, the “ratio of binding signal relative to blank control” value [18] was 0.6 ratio and the “IC50 (M) at 5 nM GROα (inhibition of GRO-α, FIG. 2)” value [19] was 3.03e-08 M. The “IC50 (M) at 15 nM GROα (inhibition of GRO-α, FIG. 2)” value [19] was 4.04e-08 M, the “IC50 (M) at 45 nM GROα (inhibition of GRO-α, FIG. 2)” value [19] was 7.54e-08 M and the “IC50 (M) at 150 nM GROα (inhibition of GRO-α, FIG. 2)” value [19] was 1.87e-07 M.

B3: CXCR20076 (VHH)
VHH: B2 VHH with V5L, V23A, A65V, A76S, K88R, Q117L
notes: also called RD-HBC794; MAb 794
In the case of B3, the IC50 [7] is reported as 16 nM, the IC50 [8] is reported as 25 nM and the “Signal:Background” value [20] is reported as 20 ratio. The “FLIPR hGro-α IC50” value [16] was 31 nM and the “FLIPR hGro-α IC50” value [17] was 100 nM.

B4: 54B12 (VHH)
VHH: EVQLVESGGGLVQAGGSLTLSCAVSGSTFRINTMGWYRRAPGKQRELVAARDRGGYINYVDSVKGRFTVSRDNAKPTMYLQMNSLKPEDTAVYYCHAGTQDRTGRNFDRWGQGTQVTVSS
notes: Tested as periplasmic extract (pAX50) and as purified His6-tagged protein (pAX100); also called 054B12; not shown: C-terminal c-myc tag and His6 tag coded by the vector
In the case of B4, the “FLIPR hGro-α IC50” value [21] is reported as 150 nM, the “FLIPR hGro-α IC50” value [22] is reported as 1100 nM and the “% inhibition of max” value [9] is reported as 35%. The IC50 [9] was 0.857 nM, the “% inhibition of max” value [10] was 63% and the IC50 [10] was 39.5 nM. For the same binder, the IC50 [23] was 33 nM, the “FLIPR % inhibition max” value [12] was 100% and the “FLIPR IC50 (GRO-α induced calcium release)” value [12] was 153 nM. The “[35S]GTPγS % inhibition max (GRO-α)” value [12] was 71.8%, the “[35S]GTPγS IC50 (GRO-α)” value [12] was 15.4 nM and the “FLIPR % inhibition max” value [13] was 100%. For the same binder, the “FLIPR IC50 (GRO-α induced calcium release)” value [13] was 4080 nM, the “Human WBSC IC50 (rhGROα)” value [14] was 19.7 nM and the “Cynomologus WBSC IC50 (rhGROα)” value [15] was greater than 100 nM. The “ratio of binding signal relative to blank control” value [18] was 75.5 ratio.

B5: CXCR20104 (VHH)
VHH: B4 VHH with V5L, A14P, T19R, R39Q, V69I, A74S, K86R, Q115L
notes: also called CXCR2104
For B5, the “FLIPR hGro-α IC50” value [21] was 59 nM, the “FLIPR hGro-α IC50” value [22] was 3500 nM and the IC50 [23] was 13 nM.

B6: CXCR20079 (VHH)
VHH: EVQLLESGGGLVQPGGSLRLSCAASGSTFDFKVMGWYRQAPGKQREGVAAIRLSGNRHYAESVKGRFTISRANSKNTVYLQMNSLRPEDTAVYYCKVNIRGQDYWGQGTLVTVSS
notes: also called RD-HBC792; RDHBC 792
With B6 the IC50 [24] was 0.8 nM, the IC50 [25] was 2.8 nM and the “Signal:Background” value [5] was 13 ratio. For the same binder, the “FLIPR hGro-α IC50” value [26] was 10 nM and the “FLIPR hGro-α IC50” value [27] was 450 nM.
